Two molecules from US20250277044A1 (published 2025) can be followed below.

In assay [1] the target is T1, recombinant human 4-1BB (Sino Biological Inc., catalog number 10041-H08H) (human, UniProt Q07011 24-186). Description: ELISA; FIG. 6.
Assay [2] has as its target T1, recombinant human 4-1BB (Sino …). Description: competition ELISA; blocking of 4-1BB/4-1BBL.
Assay [3] shares this target. Put plainly: ELISA; FIG. 6. This is another data set of the same source.
Assay [4] shares this target. Description: ELISA; FIG. 2.

B1: humanized anti-human 4-1BB monoclonal antibody BH3145b (antibody, V domains shown)
VH: QVQLVQSGAEVKKPGSSVKVSCKASGYTFTSYWINWVRQAPGQGLEWMGNIYPSDSYTNYNQKFKDRVTITADKSTSTAYMELSSLRSEDTAVYYCARLYYGSSPFDYWGQGTTVTVSS
VL: DIQMTQSPSSLSASVGDRVTITCRASQDISNYLNWYQQKPGKVPKLLIYHTSRLHSGVPSRFSGSGSGTDFTLTISSLQPEDVATYYCQQGHTLPRTFGGGTKVEIKR
For the molecule B1, the values for the EC50 in assay [1] and in assay [2] were 0.086 nM and 14 nM, respectively.

B2: Urelumab (a patent sequence from WO2004010947) (antibody, V domains shown)
VH: QVQLQQWGAGLLKPSETLSLTCAVYGGSFSGYYWSWIRQSPEKGLEWIGEINHGGYVTYNPSLESRVTISVDTSKNQFSLKLSSVTAADTAVYYCARDYGPGNYDWYFDLWGRGTLVTVSS
VL: EIVLTQSPATLSLSPGERATLSCRASQSVSSYLAWYQQKPGQAPRLLIYDASNRATGIPARFSGSGSGTDFTLTISSLEPEDFAVYYCQQRSNWPPALTFGGGTKVEIK
As to B2, the EC50 in assay [3] and in assay [4] was 0.087 nM in each case.
